Reference: article PMC9309400

Legend:
[1] = molecular target: Family 2B encapsulin from S. griseus, expressed in E. coli (S. griseus); test: cryo-EM 2D class averages
[2] = molecular target: Family 2B encapsulin from S. griseus (Q54255), expressed in S. coelicolor (S. griseus); test: cryo-EM 2D class averages

Row | Substance | percent of encapsulins with apparent cargo [1] | percent of particles with cargo [2]
1 | cargo protein of the Family 2B encapsulin from S. griseus, expressed in E. coli (natural protein) | 34% | –
2 | cargo protein of the encapsulin (A0A2X2LWM5), expressed in S. coelicolor (natural protein) | – | 96%
